Data taken from patent publication CN113564213A.

Assays:
[1] = target: 增强型荧光蛋白eGFP (eGFP的A206K突变体, mEGFP); assay: bead capture from 1 mL eGFP IVTT liquid, beads in excess, 1 h; fluorescence (RFU) of IVTT supernatant against flow-through
[2] = target: 增强型荧光蛋白eGFP (eGFP的A206K突变体, mEGFP); assay: bead capture from 2 mL eGFP IVTT liquid, eGFP in excess, 1 h; fluorescence (RFU) of Total against Flow-through

- 结合效率 [1]: 98.2%
- 载量 (每毫升antiEGFP磁珠结合的eGFP蛋白的质量) [2]: 17.7 mg/mL
B1: antiEGFP-mScarlet-Tamvavidin2融合蛋白 (VHH, part only; not given: mScarlet and Tamavidin2 parts, not shown: large carriers)
chain, part: MAQVQLVESGGALVQPGGSLRLSCAASGFPVNRYSMRWYRQAPGKEREWVAGMSSAGDRSSYEDSVKGRFTISRDDARNTVYLQMNSLKPEDTAVYYCNVNVGFEYWGQGTQVTVSS
